Test results as given in PMC9438803 (Life Science Alliance, 2021).

Assays:
[1] = target: RPA49/RPA34 heterodimer full length (Homo sapiens, UniProt Q9GZS1;O15446 1-419;1-510); test: EMSA; EMSA: 100 fmol DNA, up to 50x protein, RT 30 min; buffer 1: 10 mM Tris pH 7.5, 50 mM NaCl, 1 mM MgCl2, 4% glycerol, 0.5 mM EDTA, 0.5 mM DTT; or buffer 2: 20 mM; settings: protein: recombinant; tags: N-term 6xHis on RPA49; RPA34 untagged; copies: 1;1; label: 5'-Cy5 on strand 1; blunt
dock II minimal = dock II minimal (Homo sapiens, UniProt O95602 1081-1146); test: EMSA; up to 50x protein excess; no major DNA binding; EMSA: 100 fmol DNA, up to 50x protein, RT 30 min; buffer 1: 10 mM Tris pH 7.5, 50 mM NaCl, 1 mM MgCl2, 4% glycerol, 0.5 mM EDTA, 0.5 mM DTT; or buffer 2: 20 mM; settings: protein: recombinant; tags: C-term His-MBP; label: 5'-Cy5 on strand 1; blunt
[2] = target: T1, recombinant human Topoisomerase 2a lacking the unstructured C-terminal domain (1-1,217) (human, UniProt P11388 1-1217); test: mass spectrometry of bands cut from the native PAGE; unshifted and shifted Top2a bands of the blue-native gel analysed by mass spectrometry; settings: both partners purified
T1 construct: human Topoisomerase 2a residues 1-1,217; A legend on the cited structures calls Top2a a homodimer; also called Top2a ΔC; Top2aΔCTD; source: recombinant, purified
T1 sequence (P11388 1-1217): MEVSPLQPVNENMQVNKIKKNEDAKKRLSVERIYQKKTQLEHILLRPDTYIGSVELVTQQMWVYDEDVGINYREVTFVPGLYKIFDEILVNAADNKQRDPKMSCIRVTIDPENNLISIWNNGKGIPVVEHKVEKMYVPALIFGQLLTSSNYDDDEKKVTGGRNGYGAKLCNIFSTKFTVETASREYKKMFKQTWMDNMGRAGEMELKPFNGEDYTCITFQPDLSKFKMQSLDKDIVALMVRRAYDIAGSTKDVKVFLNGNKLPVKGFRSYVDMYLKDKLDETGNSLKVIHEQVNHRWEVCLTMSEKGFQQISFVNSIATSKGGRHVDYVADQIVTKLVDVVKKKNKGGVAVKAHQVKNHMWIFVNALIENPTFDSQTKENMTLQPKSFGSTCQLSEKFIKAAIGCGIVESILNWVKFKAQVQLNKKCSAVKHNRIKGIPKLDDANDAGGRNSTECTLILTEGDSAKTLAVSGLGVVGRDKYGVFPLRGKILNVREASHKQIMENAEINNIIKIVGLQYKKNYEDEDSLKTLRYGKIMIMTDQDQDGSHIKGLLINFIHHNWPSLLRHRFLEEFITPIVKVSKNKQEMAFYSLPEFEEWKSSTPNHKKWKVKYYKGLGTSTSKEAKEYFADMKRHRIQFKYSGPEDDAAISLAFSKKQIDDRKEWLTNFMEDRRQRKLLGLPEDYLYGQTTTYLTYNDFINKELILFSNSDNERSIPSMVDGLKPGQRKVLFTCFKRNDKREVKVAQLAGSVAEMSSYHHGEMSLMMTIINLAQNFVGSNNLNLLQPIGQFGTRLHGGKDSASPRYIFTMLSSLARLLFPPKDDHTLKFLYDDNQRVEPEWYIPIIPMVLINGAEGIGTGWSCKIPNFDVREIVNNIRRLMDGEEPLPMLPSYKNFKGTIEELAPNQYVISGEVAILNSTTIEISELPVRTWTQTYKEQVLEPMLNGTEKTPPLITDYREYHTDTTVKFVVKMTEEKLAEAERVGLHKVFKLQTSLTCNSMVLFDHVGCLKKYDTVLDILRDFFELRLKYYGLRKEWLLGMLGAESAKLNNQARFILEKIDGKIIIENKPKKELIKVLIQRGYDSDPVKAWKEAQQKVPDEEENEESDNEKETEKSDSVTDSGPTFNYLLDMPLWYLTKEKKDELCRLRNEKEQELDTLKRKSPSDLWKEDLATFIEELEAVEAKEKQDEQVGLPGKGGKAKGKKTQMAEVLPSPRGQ

RPA49/RPA34 heterodimer full length, sequence (Q9GZS1 whole entry, chain 1 of 2): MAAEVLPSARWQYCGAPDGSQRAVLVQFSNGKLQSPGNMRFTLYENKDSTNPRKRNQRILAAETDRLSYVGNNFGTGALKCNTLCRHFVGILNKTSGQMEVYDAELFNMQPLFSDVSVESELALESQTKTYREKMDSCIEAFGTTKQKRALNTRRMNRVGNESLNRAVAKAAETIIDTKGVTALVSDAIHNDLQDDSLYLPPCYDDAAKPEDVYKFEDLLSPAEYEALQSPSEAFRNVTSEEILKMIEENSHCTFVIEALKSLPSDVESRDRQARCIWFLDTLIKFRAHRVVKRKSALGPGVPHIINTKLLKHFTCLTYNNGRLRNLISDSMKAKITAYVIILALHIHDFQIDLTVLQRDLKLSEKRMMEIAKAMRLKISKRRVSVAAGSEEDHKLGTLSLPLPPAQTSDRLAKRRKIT
RPA49/RPA34 heterodimer full length, sequence (O15446 whole entry, chain 2 of 2): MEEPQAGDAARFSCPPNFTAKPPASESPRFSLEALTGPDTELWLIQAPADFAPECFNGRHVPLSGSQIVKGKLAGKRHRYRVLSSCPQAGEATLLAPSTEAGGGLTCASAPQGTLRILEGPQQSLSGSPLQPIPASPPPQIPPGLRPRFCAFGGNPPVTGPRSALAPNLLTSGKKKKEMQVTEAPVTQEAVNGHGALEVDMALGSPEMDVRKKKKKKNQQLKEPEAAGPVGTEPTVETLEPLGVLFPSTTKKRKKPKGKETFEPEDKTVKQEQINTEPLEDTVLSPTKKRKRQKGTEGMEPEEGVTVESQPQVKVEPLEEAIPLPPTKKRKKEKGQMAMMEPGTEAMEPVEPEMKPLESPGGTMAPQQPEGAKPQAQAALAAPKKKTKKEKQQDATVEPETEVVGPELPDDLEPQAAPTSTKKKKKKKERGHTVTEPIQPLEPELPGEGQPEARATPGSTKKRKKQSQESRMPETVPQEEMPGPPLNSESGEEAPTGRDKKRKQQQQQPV

| binding result [2] | Binder | binding result [1] | binding result (dock II minimal) |
| --- | --- | --- | --- |
| – | EMSA-DNA 40 bp (dsDNA) DNA 1: CTGGAACAACACTCAACCCTATCTCGGTCTATTCTTTTGA DNA 2: TCAAAAGAATAGACCGAGATAGGGTTGAGTGTTGTTCCAG | binds | no binding |
| binds | human dock II domain, full-length fragment (RPA1 1060-1155) with C-terminal His-MBP-tag (domain or fragment, UniProt O95602 1060-1155, looked up, human RPA1 residues 1060-1155, the dock II domain (HMG box-like foot insertion); The results call it MBP-dock II; the methods say that the His-MBP tag is C-terminal; also called full-length MBP-dock II; dock II-MBP fusion; source: E. coli BL21 (DE3) RIL, purified (Ni-NTA, Superdex 75); not shown: His, C-terminal, kept; MBP, C-terminal, kept) ADPKKALHHFRAIKKWQSKHPNTLLRRGAFLSYSQKIQEAVKALKLESENRNGRSPGTQEMLRMWYELDEESRRKYQKKAAACPDPSLSVWRPDIY | – | – |
